Laboratory results published in US20260265348A1 (HEIDELBERG IMMUNOTHERAPEUTICS, published 2026).

Experiments:
HSV-1F gB D199A = HSV-1F gB D199A (HSV-1 strain F, UniProt P06436 30-903); assay: cell-based or functional assay
HSV-1F gB K204A = HSV-1F gB K204A (HSV-1 strain F, UniProt P06436 30-903); assay: cell-based or functional assay
[1] = biological target: T1, HSV-1F gB R304Q (HDIT101-resistance mutant) (HSV-1 strain F, UniProt P06436 30-903); assay: cell-based or functional assay
HSV-1F gB K320A = HSV-1F gB K320A (HSV-1 strain F, UniProt P06436 30-903); assay: cell-based or functional assay
HSV-1F gB Y326A = HSV-1F gB Y326A (HSV-1 strain F, UniProt P06436 30-903); assay: cell-based or functional assay
HSV-1F gB R335A = HSV-1F gB R335A (HSV-1 strain F, UniProt P06436 30-903); assay: cell-based or functional assay
[2] = biological target: HSV-1F gB R335Q (HDIT102(H4)-resistant escape mutant) (HSV-1 strain F, UniProt P06436 30-903); assay: cell-based or functional assay
[3] = biological target: glycoprotein B (gB) of HSV-1 strain F, full length, wild type (HSV-1 strain F, UniProt P06436 30-903); assay: cell-based or functional assay
[4] = biological target: glycoprotein B (gB) of HSV-2 strain G, full length, wild type (HSV-2 strain G); assay: cell-based or functional assay
[5] = biological target: T2, recombinant HSV-1F glycoprotein B (gB) ectodomain (aa 30-729), trimeric (HSV-1 strain F, UniProt P06436 30-729); assay: BLI (Octet), Fab, Kd=kdis/ka
T2 construct: also called recombinant HSV-1 gB; HSV-1F gB

[6] = biological target: T2, recombinant HSV-1F glycoprotein B (gB) …; assay: BLI (Octet), biotinylated gB on streptavidin tips, Fab dilution series, global 1:1 fit; Fab; HSV-1F gB
[7] = biological target: T2, recombinant HSV-1F glycoprotein B (gB) …; assay: BLI (Octet), biotinylated gB on streptavidin tips, IgG in solution; full IgG, not Fab
[8] = biological target: T1, HSV-1F gB R304Q (HDIT101-resistance …); assay: flow cytometry of HEK293T cells transfected with a gB plasmid, FITC anti-human Fc secondary antibody, iMFI
[9] = biological target: T2, recombinant HSV-1F glycoprotein B (gB) …; assay: BLI (Octet), biotinylated gB on streptavidin tips, Fab dilution series, global 1:1 fit

B1: HDIT102(H4), fully human IgG1 anti-HSV gB antibody (antibody, V domains shown)
VH: EVQLVQSGAEVKTPGASVRVSCKASGHTFRTFDINWVRQAAGQGLEWMGWMSPNSGNTGYARQFQGRVTMTRNISANTAYMELRGLRFDDTAVYYCARGPGSTGTTGSMDVWGQGTTVTVSS
VL: QAGLTQPPSVSVAPGKTARISCGGNNIGSKSVHWYQQKPGQAPVLVIYYDSDRPSGIPERFSGSNSGNTATLTISRVEAGDEADYYCQVWDSGSVVFGGGTKLTVLG
inhibition of gB-mediated cell-cell fusion by HDIT102(H4) (75 µg/ml), relative to wild type gB (HSV-1F gB D199A): 32.9 % of WT
inhibition of gB-mediated cell-cell fusion by HDIT102(H4) (75 µg/ml), relative to wild type gB (HSV-1F gB K204A): 57.3 % of WT
inhibition of gB-mediated cell-cell fusion by HDIT102(H4) (75 µg/ml), relative to wild type gB [1]: 92.3 % of WT
inhibition of gB-mediated cell-cell fusion by HDIT102(H4) (75 µg/ml), relative to wild type gB (HSV-1F gB K320A): 90.1 % of WT
inhibition of gB-mediated cell-cell fusion by HDIT102(H4) (75 µg/ml), relative to wild type gB (HSV-1F gB Y326A): 72.7 % of WT
inhibition of gB-mediated cell-cell fusion by HDIT102(H4) (75 µg/ml), relative to wild type gB (HSV-1F gB R335A): 19.3 % of WT
inhibition of gB-mediated cell-cell fusion by HDIT102(H4) (75 µg/ml), relative to wild type gB [2]: 18.8 % of WT
inhibitory concentration for 50% neutralization (IC50) of 100 TCID50 cell-free HSV-1F on Vero cells [3]: 25.5 nM
inhibitory concentration for 50% neutralization (IC50) of 100 TCID50 cell-free HSV-2G on Vero cells [4]: 12.5 nM

B2: HDIT102(H4) Fab (Fab, V domains shown)
VH: B1 VH
VL: B1 VL
notes: also called Fab HDIT102; Fab HDIT102 (H4)
Kd [5]: 0.0895 nM
koff [6]: 8.85e-05 s⁻¹
kon [6]: 992000 M⁻¹ s⁻¹

B3: HDIT101, humanized IgG1 MAb2c (antibody, V domains shown)
VH: QVTLKESGPALVKPTQTLTLTCTFSGFSLSTSGMSVGWIRQPPGKALEWLAHIWWNNDKYYKPALKSRLTISKDTSKNQVVLTMTNMDPVDTATYYCARIYYGYRPYAMDYWGQGTLVTVSS
VL: DIVMTQTPLSLPVTPGEPASISCRSSQSIVHSNGNTYLEWYLQKPGQSPQLLIYKVSNRFSGVPDRFSGSGSGTDFTLKISRVEAEDVGVYYCFQGSHVPWSFGQGTKVEIKR
notes: also called MAb hu2c; HDIT101 IgG
koff [7]: ~0.0011 s⁻¹
binding result [8]: no binding

B4: HDIT101 Fab (Fab, V domains shown)
VH: B3 VH
VL: B3 VL
Kd [5]: 7.26 nM
koff [9]: 0.00313 s⁻¹
kon [6]: 435000 M⁻¹ s⁻¹
